This note sets out measurements from patent US20260265329A1, “POLYPEPTIDE AND DERIVATIVE THEREOF, COMPOSITION, AND USE THEREOF” (HANGZHOU SCIWIND BIOSCIENCES CO., LTD., priority 2023, published 2026).

Starred links: 1 amine or outer side, 2 acyl side, 3 side chain; linkers in the order of their positions; H or OH if unused. Non-standard residues stand in square brackets, D forms with d. Primed or numbered codes have the meaning given here. *: point of attachment. C20 diacid = O=C(O)CCCCCCCCCCCCCCCCCCC(=O)*; γGlu = O=C(O)[C@H](CCC(=O)[*:2])N[*:1]; βAsp = O=C(O)[C@H](CC(=O)[*:2])N[*:1]; Hyp = O=C(O)[C@@H]1C[C@@H](O)CN1; Inp′ = not defined here; Trx′ = not defined here; AEEA = NCCOCCOCC(=O)O

For the test, the target named is T1, human amylin receptor on CHO-K1/Ga15/AMY3 cells (amylin receptor/CRE-luc cell line) (human) (UniProt P30988).
T1 sequence (looked up) 1: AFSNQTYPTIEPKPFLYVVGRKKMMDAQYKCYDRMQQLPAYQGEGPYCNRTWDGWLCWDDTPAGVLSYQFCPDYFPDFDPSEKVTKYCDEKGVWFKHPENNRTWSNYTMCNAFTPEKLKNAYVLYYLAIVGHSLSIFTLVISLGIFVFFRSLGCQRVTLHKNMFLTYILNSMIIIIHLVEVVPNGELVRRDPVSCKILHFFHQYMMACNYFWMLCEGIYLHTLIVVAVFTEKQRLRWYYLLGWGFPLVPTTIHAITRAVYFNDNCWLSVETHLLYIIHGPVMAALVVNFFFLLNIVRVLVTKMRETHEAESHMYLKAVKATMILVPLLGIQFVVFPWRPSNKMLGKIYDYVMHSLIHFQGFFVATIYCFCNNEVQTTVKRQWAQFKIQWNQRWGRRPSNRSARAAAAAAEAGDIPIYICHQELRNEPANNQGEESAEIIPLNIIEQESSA
T1 sequence (looked up) 2: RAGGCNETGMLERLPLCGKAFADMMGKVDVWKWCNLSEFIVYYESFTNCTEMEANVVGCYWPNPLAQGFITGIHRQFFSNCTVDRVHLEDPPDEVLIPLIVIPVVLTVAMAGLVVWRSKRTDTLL
The test is described as follows: cell-based or functional assay.

For the molecule {C20 diacid-Inp′-AEEA-AEEA}-ASQLSTAATQRLADFLRHSSNNLKPILPPTNVGSNT[Hyp]-NH2 [M36], the EC50 (luciferase assay, amylin receptor/CRE-luc CHO cells) amounted to 0.059 nM and the Relative activity (the EC50 ratio of Cagrilintide to the compound) came to 91%.
The matching figures for {C20 diacid-Inp′}-ASQLSTAATQRLADFLRHSSNNLKPILPPTNVGSNT[Hyp]-NH2 [M30]: 0.039 nM and 130%.

B1: M28 (peptide)
peptide: {C20 diacid}-DASQLSTAATQRLADFLRHSSNNLKPILPPTNVGSNT[Hyp]-NH2
SMILES: CC[C@H](C)[C@H](NC(=O)[C@@H]1CCCN1C(=O)[C@H](CCCCN)NC(=O)[C@H](CC(C)C)NC(=O)[C@H](CC(N)=O)NC(=O)[C@H](CC(N)=O)NC(=O)[C@H](CO)NC(=O)[C@H](CO)NC(=O)[C@H](Cc1c[nH]cn1)NC(=O)[C@H](CCCNC(=N)N)NC(=O)[C@H](CC(C)C)NC(=O)[C@H](Cc1ccccc1)NC(=O)[C@H](CC(=O)O)NC(=O)[C@H](C)NC(=O)[C@H](CC(C)C)NC(=O)[C@H](CCCNC(=N)N)NC(=O)[C@H](CCC(N)=O)NC(=O)[C@@H](NC(=O)[C@H](C)NC(=O)[C@H](C)NC(=O)[C@@H](NC(=O)[C@H](CO)NC(=O)[C@H](CC(C)C)NC(=O)[C@H](CCC(N)=O)NC(=O)[C@H](CO)NC(=O)[C@H](C)NC(=O)[C@H](CC(=O)O)NC(=O)CCCCCCCCCCCCCCCCCCC(=O)O)[C@@H](C)O)[C@@H](C)O)C(=O)N[C@@H](CC(C)C)C(=O)N1CCC[C@H]1C(=O)N1CCC[C@H]1C(=O)N[C@H](C(=O)N[C@@H](CC(N)=O)C(=O)N[C@H](C(=O)NCC(=O)N[C@@H](CO)C(=O)N[C@@H](CC(N)=O)C(=O)N[C@H](C(=O)N1C[C@H](O)C[C@H]1C(N)=O)[C@@H](C)O)C(C)C)[C@@H](C)O
Take B1: the EC50 (luciferase assay, amylin receptor/CRE-luc CHO cells) is 0.039 nM and the Relative activity (the EC50 ratio of Cagrilintide to the compound) came to 128%.

B2: M34 (peptide)
peptide: {C20 diacid}-D[AEEA][AEEA]ASQLSTAATQRLADFLRHSSNNLKPILPPTNVGSNT[Hyp]-NH2
SMILES: CC[C@H](C)[C@H](NC(=O)[C@@H]1CCCN1C(=O)[C@H](CCCCN)NC(=O)[C@H](CC(C)C)NC(=O)[C@H](CC(N)=O)NC(=O)[C@H](CC(N)=O)NC(=O)[C@H](CO)NC(=O)[C@H](CO)NC(=O)[C@H](Cc1c[nH]cn1)NC(=O)[C@H](CCCNC(=N)N)NC(=O)[C@H](CC(C)C)NC(=O)[C@H](Cc1ccccc1)NC(=O)[C@H](CC(=O)O)NC(=O)[C@H](C)NC(=O)[C@H](CC(C)C)NC(=O)[C@H](CCCNC(=N)N)NC(=O)[C@H](CCC(N)=O)NC(=O)[C@@H](NC(=O)[C@H](C)NC(=O)[C@H](C)NC(=O)[C@@H](NC(=O)[C@H](CO)NC(=O)[C@H](CC(C)C)NC(=O)[C@H](CCC(N)=O)NC(=O)[C@H](CO)NC(=O)[C@H](C)NC(=O)COCCOCCNC(=O)COCCOCCNC(=O)[C@H](CC(=O)O)NC(=O)CCCCCCCCCCCCCCCCCCC(=O)O)[C@@H](C)O)[C@@H](C)O)C(=O)N[C@@H](CC(C)C)C(=O)N1CCC[C@H]1C(=O)N1CCC[C@H]1C(=O)N[C@H](C(=O)N[C@@H](CC(N)=O)C(=O)N[C@H](C(=O)NCC(=O)N[C@@H](CO)C(=O)N[C@@H](CC(N)=O)C(=O)N[C@H](C(=O)N1C[C@H](O)C[C@H]1C(N)=O)[C@@H](C)O)C(C)C)[C@@H](C)O
For B2, the EC50 (luciferase assay, amylin receptor/CRE-luc CHO cells) was found to be 0.132 nM and the Relative activity (the EC50 ratio of Cagrilintide to the compound) was 40%.

B3: M32 (peptide)
peptide: {C20 diacid}-E[AEEA][AEEA]ASQLSTAATQRLADFLRHSSNNLKPILPPTNVGSNT[Hyp]-NH2
SMILES: CC[C@H](C)[C@H](NC(=O)[C@@H]1CCCN1C(=O)[C@H](CCCCN)NC(=O)[C@H](CC(C)C)NC(=O)[C@H](CC(N)=O)NC(=O)[C@H](CC(N)=O)NC(=O)[C@H](CO)NC(=O)[C@H](CO)NC(=O)[C@H](Cc1c[nH]cn1)NC(=O)[C@H](CCCNC(=N)N)NC(=O)[C@H](CC(C)C)NC(=O)[C@H](Cc1ccccc1)NC(=O)[C@H](CC(=O)O)NC(=O)[C@H](C)NC(=O)[C@H](CC(C)C)NC(=O)[C@H](CCCNC(=N)N)NC(=O)[C@H](CCC(N)=O)NC(=O)[C@@H](NC(=O)[C@H](C)NC(=O)[C@H](C)NC(=O)[C@@H](NC(=O)[C@H](CO)NC(=O)[C@H](CC(C)C)NC(=O)[C@H](CCC(N)=O)NC(=O)[C@H](CO)NC(=O)[C@H](C)NC(=O)COCCOCCNC(=O)COCCOCCNC(=O)[C@H](CCC(=O)O)NC(=O)CCCCCCCCCCCCCCCCCCC(=O)O)[C@@H](C)O)[C@@H](C)O)C(=O)N[C@@H](CC(C)C)C(=O)N1CCC[C@H]1C(=O)N1CCC[C@H]1C(=O)N[C@H](C(=O)N[C@@H](CC(N)=O)C(=O)N[C@H](C(=O)NCC(=O)N[C@@H](CO)C(=O)N[C@@H](CC(N)=O)C(=O)N[C@H](C(=O)N1C[C@H](O)C[C@H]1C(N)=O)[C@@H](C)O)C(C)C)[C@@H](C)O
Consider B3, for which the EC50 (luciferase assay, amylin receptor/CRE-luc CHO cells) came out at 0.115 nM and the Relative activity (the EC50 ratio of Cagrilintide to the compound) is 44%.

B4: M31 (peptide)
peptide: {C20 diacid-γGlu-AEEA-AEEA}-ASQLSTAATQRLADFLRHSSNNLKPILPPTNVGSNT[Hyp]-NH2
SMILES: CC[C@H](C)[C@H](NC(=O)[C@@H]1CCCN1C(=O)[C@H](CCCCN)NC(=O)[C@H](CC(C)C)NC(=O)[C@H](CC(N)=O)NC(=O)[C@H](CC(N)=O)NC(=O)[C@H](CO)NC(=O)[C@H](CO)NC(=O)[C@H](Cc1c[nH]cn1)NC(=O)[C@H](CCCNC(=N)N)NC(=O)[C@H](CC(C)C)NC(=O)[C@H](Cc1ccccc1)NC(=O)[C@H](CC(=O)O)NC(=O)[C@H](C)NC(=O)[C@H](CC(C)C)NC(=O)[C@H](CCCNC(=N)N)NC(=O)[C@H](CCC(N)=O)NC(=O)[C@@H](NC(=O)[C@H](C)NC(=O)[C@H](C)NC(=O)[C@@H](NC(=O)[C@H](CO)NC(=O)[C@H](CC(C)C)NC(=O)[C@H](CCC(N)=O)NC(=O)[C@H](CO)NC(=O)[C@H](C)NC(=O)COCCOCCNC(=O)COCCOCCNC(=O)CC[C@H](NC(=O)CCCCCCCCCCCCCCCCCCC(=O)O)C(=O)O)[C@@H](C)O)[C@@H](C)O)C(=O)N[C@@H](CC(C)C)C(=O)N1CCC[C@H]1C(=O)N1CCC[C@H]1C(=O)N[C@H](C(=O)N[C@@H](CC(N)=O)C(=O)N[C@H](C(=O)NCC(=O)N[C@@H](CO)C(=O)N[C@@H](CC(N)=O)C(=O)N[C@H](C(=O)N1C[C@H](O)C[C@H]1C(N)=O)[C@@H](C)O)C(C)C)[C@@H](C)O
B4: the EC50 (luciferase assay, amylin receptor/CRE-luc CHO cells) turned out to be 0.168 nM and the Relative activity (the EC50 ratio of Cagrilintide to the compound) was found to be 30%.
The matching figures for {C20 diacid-Trx′}-ASQLSTAATQRLADFLRHSSNNLKPILPPTNVGSNT[Hyp]-NH2 (reading uncertain) [M29]: 0.122 nM and 412%.

B5: M33 (peptide)
peptide: {C20 diacid-βAsp-AEEA-AEEA}-ASQLSTAATQRLADFLRHSSNNLKPILPPTNVGSNT[Hyp]-NH2
SMILES: CC[C@H](C)[C@H](NC(=O)[C@@H]1CCCN1C(=O)[C@H](CCCCN)NC(=O)[C@H](CC(C)C)NC(=O)[C@H](CC(N)=O)NC(=O)[C@H](CC(N)=O)NC(=O)[C@H](CO)NC(=O)[C@H](CO)NC(=O)[C@H](Cc1c[nH]cn1)NC(=O)[C@H](CCCNC(=N)N)NC(=O)[C@H](CC(C)C)NC(=O)[C@H](Cc1ccccc1)NC(=O)[C@H](CC(=O)O)NC(=O)[C@H](C)NC(=O)[C@H](CC(C)C)NC(=O)[C@H](CCCNC(=N)N)NC(=O)[C@H](CCC(N)=O)NC(=O)[C@@H](NC(=O)[C@H](C)NC(=O)[C@H](C)NC(=O)[C@@H](NC(=O)[C@H](CO)NC(=O)[C@H](CC(C)C)NC(=O)[C@H](CCC(N)=O)NC(=O)[C@H](CO)NC(=O)[C@H](C)NC(=O)COCCOCCNC(=O)COCCOCCNC(=O)C[C@H](NC(=O)CCCCCCCCCCCCCCCCCCC(=O)O)C(=O)O)[C@@H](C)O)[C@@H](C)O)C(=O)N[C@@H](CC(C)C)C(=O)N1CCC[C@H]1C(=O)N1CCC[C@H]1C(=O)N[C@H](C(=O)N[C@@H](CC(N)=O)C(=O)N[C@H](C(=O)NCC(=O)N[C@@H](CO)C(=O)N[C@@H](CC(N)=O)C(=O)N[C@H](C(=O)N1C[C@H](O)C[C@H]1C(N)=O)[C@@H](C)O)C(C)C)[C@@H](C)O
For the molecule B5, the EC50 (luciferase assay, amylin receptor/CRE-luc CHO cells) came out at 0.145 nM and the Relative activity (the EC50 ratio of Cagrilintide to the compound) amounted to 37%.
The matching figures for {C20 diacid-Trx′-AEEA-AEEA}-ASQLSTAATQRLADFLRHSSNNLKPILPPTNVGSNT[Hyp]-NH2 (reading uncertain) [M35]: 0.043 nM and 124%.
